Data reported in patent US20190256864A1 (INDIANA UNIVERSITY RESEARCH AND TECHNOLOGY, published 2019).
Changes are numbered by the printed parent chain. Names and notes keep the numbering of the source.

Key:
[1] = tested on: T1, Wheat streak mosaic virus (WSMV) PBS1 decoy protein
T1 sequence: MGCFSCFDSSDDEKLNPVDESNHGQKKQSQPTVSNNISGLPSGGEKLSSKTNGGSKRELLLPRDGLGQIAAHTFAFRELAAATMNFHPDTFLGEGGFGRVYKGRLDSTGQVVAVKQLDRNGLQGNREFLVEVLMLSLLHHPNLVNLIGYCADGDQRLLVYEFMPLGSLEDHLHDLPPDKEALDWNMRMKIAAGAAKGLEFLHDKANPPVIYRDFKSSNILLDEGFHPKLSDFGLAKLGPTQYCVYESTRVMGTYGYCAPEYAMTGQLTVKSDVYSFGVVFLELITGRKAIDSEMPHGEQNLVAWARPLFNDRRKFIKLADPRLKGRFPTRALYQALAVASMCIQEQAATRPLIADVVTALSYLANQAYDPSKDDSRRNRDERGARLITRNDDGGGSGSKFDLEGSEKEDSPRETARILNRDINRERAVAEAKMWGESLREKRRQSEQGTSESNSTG

[2] = tested on: T2, Soybean mosaic virus (SMV) PBS1 decoy protein
T2 sequence: T1 sequence with Q241E, Y242S, C243V, V244L, Y245S, E246Q

sYFP:LTI6b = biological target: T3, sYFP:LTI6b (Arabidopsis thaliana, UniProt Q9ZNS6 1-54); assay: co-immunoprecipitation (GFP-Trap beads, anti-HA blot) after transient co-expression in N. benthamiana
T3 construct: Negative control in the co-immunoprecipitation; also called sYFP:LTI6b fusion protein; plasma membrane-localized negative control; not shown: N-terminal super yellow fluorescent protein (sYFP)
T3 sequence (looked up): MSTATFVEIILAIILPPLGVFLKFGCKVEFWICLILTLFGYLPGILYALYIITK
Procedure: To determine whether PBR1.c is activated by sensing cleavage of PBS1 proteins, co-immunoprecipitation (co-IP) analyses of PBR1.c with HvPBS1-1:HA, HvPBS1-2:HA, AtPBS1:HA, or NbPBS1:HA was performed. As a positive control, AtPBS1:HA was co-expressed with RPS5:sYFP, which forms a pre- activation complex in the absence of AvrPphB. As a negative control, the plasma membrane-localized fusion protein sYFP:LTI6b with each of the PBS1 proteins (Cutler et al., 2000). […] NbPBS1:HA also immunoprecipitated with PBR1.c:sYFP (and not with sYFP:LTI6b) supporting the notion that AvrPphB-mediated cleavage of NbPBS1 activates PBR1.c-dependent HR in N. benthamiana. Though all of the PBS1 proteins immunoprecipitated with PBR1.c:sYFP, PBR1.c:sYFP preferentially interacted with HvPBS1-2:HA and AtPBS1:HA (FIG. 7).
For transient expression assays in N. benthamiana, we followed the protocol described by DeYoung et al. (2012) and Kim et al. (2016). Briefly, the dexamethasone-inducible constructs were transformed into Agrobacterium tumefaciens GV3101 (pMP90) strains and were streaked onto Luria-Bertani (LB) plates containing 30 μg of gentamicin sulfate per milliliter and 50 μg of kanamycin per milliliter. […]

HvPBS1-1:HA = biological target: T4, HvPBS1-1:HA
T4 chain: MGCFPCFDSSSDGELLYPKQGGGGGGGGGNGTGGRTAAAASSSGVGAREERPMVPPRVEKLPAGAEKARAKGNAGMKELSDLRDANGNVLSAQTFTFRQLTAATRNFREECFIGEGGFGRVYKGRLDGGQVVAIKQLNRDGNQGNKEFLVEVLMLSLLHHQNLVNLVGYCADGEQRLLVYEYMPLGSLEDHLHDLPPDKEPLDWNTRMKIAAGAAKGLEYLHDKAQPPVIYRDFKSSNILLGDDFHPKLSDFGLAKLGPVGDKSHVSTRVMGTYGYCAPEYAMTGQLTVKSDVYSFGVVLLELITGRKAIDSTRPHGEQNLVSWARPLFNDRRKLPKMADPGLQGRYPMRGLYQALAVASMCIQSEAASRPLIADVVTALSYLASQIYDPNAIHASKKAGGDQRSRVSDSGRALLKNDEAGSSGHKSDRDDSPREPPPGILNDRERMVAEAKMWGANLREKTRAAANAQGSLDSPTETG

HvPBS1-2:HA = biological target: T5, HvPBS1-2:HA
T5 chain: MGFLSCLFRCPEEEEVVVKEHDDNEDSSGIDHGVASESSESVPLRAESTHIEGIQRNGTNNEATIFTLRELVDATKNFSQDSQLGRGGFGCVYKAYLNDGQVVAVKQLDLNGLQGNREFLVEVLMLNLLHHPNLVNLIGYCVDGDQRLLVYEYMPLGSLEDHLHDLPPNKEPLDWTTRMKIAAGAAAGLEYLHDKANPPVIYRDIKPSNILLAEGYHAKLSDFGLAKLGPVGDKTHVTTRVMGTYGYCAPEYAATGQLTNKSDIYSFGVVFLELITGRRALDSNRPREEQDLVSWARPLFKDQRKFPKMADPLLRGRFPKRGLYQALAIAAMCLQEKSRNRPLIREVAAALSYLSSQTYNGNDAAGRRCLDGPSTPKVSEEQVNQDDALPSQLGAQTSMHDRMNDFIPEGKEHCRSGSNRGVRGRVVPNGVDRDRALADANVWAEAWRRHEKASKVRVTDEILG

In the case of “Wheat streak mosaic virus (WSMV) NIa protease”, the “cleavage of the substrate (immunoblot after transient co-expression in N. benthamiana)” value [1] is reported as “demonstrating cleavage of the decoy PBS1 proteins only by the matching proteases” and the “cleavage of the substrate (immunoblot after transient co-expression in N. benthamiana); not cleaved by the non-matching protease” value [2] is reported as “demonstrating cleavage of the decoy PBS1 proteins only by the matching proteases”.

B1: HvPBS1-2:HA (enzyme, not shown: small tags and cut ends)
chain: T5 chain
notes: also called HORVU3Hr1G035810.1; MLOC_12866
B1: no binding (sYFP:LTI6b).

B2: AvrPphB(C98S):myc (protein)
chain: MKIGTQATSLAVLHNQESHAPQAPIAVRPEPAHAIPEIPLDLAIRPRTRGIHPFLAMTLGDKGCASSSGVSLEDDSHTQVSLSDFSVASRDVNHNNISAGLSTEWLVMSSDGDAESRMDHLDYNGEGQSRGSERHQVYNDALRAALSNDDEAPFFTASTAVIEDAGFSLRREPKTVHASGGSAQLGQTVAHDVAQSGRKHLLSLRFANVQGHAIACSCEGSQFKLFDPNLGEFQSSRSAAPQLIKGLIDHYNSLNYDVACVNEFRVS
For B2, the “cleavage of the substrate (Western blot after transient co-expression in N. benthamiana)” value (HvPBS1-1:HA) was “This did not produce any cleavage products”, the “cleavage of the substrate (immunoblot after transient co-expression in N. benthamiana)” value (NbPBS1:HA) was “Co-expression with AvrPphB:myc, but not the protease inactive mutant, resulted in cleavage of NbPBS1:HA” and the “cleavage of the substrate (Western blot after transient co-expression in N. benthamiana)” value (HvPBS1-2:HA) was “This did not produce any cleavage products”.

B3: HvPBS1-1:HA (enzyme, not shown: small tags and cut ends)
chain: T4 chain
notes: also called HORVU2Hr1G070690.2; MLOC_13277
B3: no binding (sYFP:LTI6b).
